This note sets out measurements from patent publication US20130336885A1 (Genentech, published 2013).

Test [1] deals with T1, gD epitope-tagged LgR5 424-907 (amino acids 424-907 of SEQ ID NO: 67) on transiently transfected 293 cells (human, UniProt O75473 424-907).
T1 sequence: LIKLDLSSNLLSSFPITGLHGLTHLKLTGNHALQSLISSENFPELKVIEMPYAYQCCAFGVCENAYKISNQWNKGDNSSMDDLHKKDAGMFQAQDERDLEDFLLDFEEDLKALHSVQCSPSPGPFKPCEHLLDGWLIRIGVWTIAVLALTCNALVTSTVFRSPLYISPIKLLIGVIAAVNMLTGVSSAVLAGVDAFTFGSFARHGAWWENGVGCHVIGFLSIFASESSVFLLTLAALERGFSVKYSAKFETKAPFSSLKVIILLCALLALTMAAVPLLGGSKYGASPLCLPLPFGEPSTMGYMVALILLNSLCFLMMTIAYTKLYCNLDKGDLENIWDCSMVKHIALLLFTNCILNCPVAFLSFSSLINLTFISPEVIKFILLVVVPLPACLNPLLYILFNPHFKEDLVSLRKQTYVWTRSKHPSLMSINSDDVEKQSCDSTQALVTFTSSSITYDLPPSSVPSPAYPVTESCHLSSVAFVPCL
Briefly: FACS on transiently transfected 293 cells.

In test [2] the target is T2, gD epitope-tagged LgR5 324-907 (amino acids 324-907 of SEQ ID NO: 67) on transiently transfected 293 cells (human, UniProt O75473 324-907).
T2 sequence: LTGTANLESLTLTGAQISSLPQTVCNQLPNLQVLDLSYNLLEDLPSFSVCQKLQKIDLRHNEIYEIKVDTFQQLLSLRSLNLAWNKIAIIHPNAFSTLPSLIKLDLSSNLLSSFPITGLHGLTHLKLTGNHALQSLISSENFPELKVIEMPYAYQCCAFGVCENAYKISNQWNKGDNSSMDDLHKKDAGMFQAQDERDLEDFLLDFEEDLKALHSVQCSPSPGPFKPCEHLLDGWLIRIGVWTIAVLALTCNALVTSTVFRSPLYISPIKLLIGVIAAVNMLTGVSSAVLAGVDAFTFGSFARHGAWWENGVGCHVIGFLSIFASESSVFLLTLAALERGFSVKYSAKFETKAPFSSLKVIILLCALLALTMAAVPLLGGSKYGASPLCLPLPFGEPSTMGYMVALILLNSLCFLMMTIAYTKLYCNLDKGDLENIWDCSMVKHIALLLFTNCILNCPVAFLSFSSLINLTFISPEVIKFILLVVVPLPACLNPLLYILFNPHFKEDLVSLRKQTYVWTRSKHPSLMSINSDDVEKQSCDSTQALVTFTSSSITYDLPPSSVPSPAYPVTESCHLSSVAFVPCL
Briefly: FACS on transiently transfected 293 cells.

Test [3] concerns the target T3, human LgR5 ECD (amino acids 22-557 fused to His-Fc expressed in a baculovirus system, or amino acids 22-558 … (human, UniProt O75473 22-557)).
T3 construct: not shown: C-terminal His-tagged Fc
T3 sequence: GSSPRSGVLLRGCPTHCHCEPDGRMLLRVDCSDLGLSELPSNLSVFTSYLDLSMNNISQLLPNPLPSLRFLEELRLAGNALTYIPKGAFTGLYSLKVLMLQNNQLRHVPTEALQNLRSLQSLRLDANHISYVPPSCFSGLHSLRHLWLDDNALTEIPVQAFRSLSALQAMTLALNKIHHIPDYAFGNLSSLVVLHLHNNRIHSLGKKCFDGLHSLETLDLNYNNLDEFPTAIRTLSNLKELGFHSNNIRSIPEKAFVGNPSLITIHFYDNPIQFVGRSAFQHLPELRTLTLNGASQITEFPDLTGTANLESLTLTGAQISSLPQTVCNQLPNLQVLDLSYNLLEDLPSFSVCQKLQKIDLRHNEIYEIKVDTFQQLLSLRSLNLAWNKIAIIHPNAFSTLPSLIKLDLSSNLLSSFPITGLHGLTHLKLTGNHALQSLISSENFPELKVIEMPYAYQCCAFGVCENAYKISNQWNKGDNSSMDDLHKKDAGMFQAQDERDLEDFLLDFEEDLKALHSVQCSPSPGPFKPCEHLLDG
Briefly: SPR (BIAcore-3000), antibody captured by anti-human Fc, LgR5 ECD-Fc injected.

B1: chimeric monoclonal antibody 8E11 (antibody, human IgG1, V domains shown)
VH: QVQLQQSGTELMKPGASVKISCKATGYTFSAYWIEWIKQRPGHGLEWIGEILPGSDSTDYNEKFKVKATFSSDTSSNTVYIQLNSLTYEDSAVYYCARGGHYGSLDYWGQGTTLKVSS
VL: NIVLTQSPASLAVSLGQRATISCRASESVDNYGNSFMHWYQQKPGQPPKLLIYLASNLESGVPARFSGSGSRTDFTLTIDPVEADDAATYYCQQNYEDPFTFGSGTKVEIKR
notes: also called ch8E11; chimeric 8E11
As to B1, the binding result in test [1] and in test [2] was “no binding (tested: 10 µg/ml)” throughout. In addition, the Kd in test [3] amounted to 2.4 nM.

B2: human antibody YW353 (antibody, human IgG1, kappa, V domains shown)
VH: EVQLVESGGGLVQPGGSLRLSCAASGFTFTSYSISWVRQAPGKGLEWVAEIYPPGGYTDYADSVKGRFTISADTSKNTAYLQMNSLRAEDTAVYYCAKARLFFDYWGQGTLVTVSS
VL: DIQMTQSPSSLSASVGDRVTITCRASQDVSTAVAWYQQKPGKAPKLLIYSASFLYSGVPSRFSGSGSGTDFTLTISSLQPEDFATYYCQQSYTTPPTFGQGTKVEIKR
notes: also called huYW353
As to B2, the binding result in test [1] and in test [2] was “no binding (tested: 10 µg/ml)” in each case. Also, binding in test [3] was characterised by a dissociation constant (Kd) of 1.6 nM.

B3: humanized monoclonal antibody 8E11.v2 (antibody, human IgG1, kappa, V domains shown)
VH: EVQLVQSGAEVKKPGASVKVSCKASGYTFSAYWIEWVRQAPGQGLEWIGEILPGSDSTDYNEKFKVRATFTSDTSTSTVYLELSSLRSEDTAVYYCARGGHYGSLDYWGQGTLVTVSS
VL: DIVMTQSPDSLAVSLGERATINCRASESVDNYGNSFMHWYQQKPGQPPKLLIYLASNLESGVPDRFSGSGSGTDFTLTISSLQAEDVAVYYCQQNYEDPFTFGQGTKVEIKR
notes: It was assessed as an IgG; also called hu8E11.v2; hu8E11v2
Regarding B3, the binding result in test [1] and in test [2] was “no binding (tested: 10 µg/ml)” each time.
